According to IntAct's records for PubMed 18854162:

B1: CCCH-type zinc finger protein oma-1 (Caenorhabditis elegans), G5EC86 (parent)
chain: MNVNGENNEKIDEHHLESSLAGVPTLPVSPLDHAKDLSQTNPNAQIGDLVTQTANLIAIKKQLLEDIAFNQHIQSMQVRAIQSFPQNNQVAPPFQQFDPRRRGLARMQKPESYKTVICQAWLESKTCSFADNCRFAHGEEELRPTFVEPLQNNKYKTKLCDKYTTTGLCPYGKRCLFIHPDHGPNAYIRADKLLEVSQRHALADIRDQMEQHIMTNGRIAAPPLSAIQHPLEMFARPSTPDEPAAKLPLGPTPVSTRGPRYELPTKELHDAEGAMTYPPSRWPLDPSMFALDAWNMAHRPASPLDSMVLGSAPNAGSFGMLGKQNTPGGVSGYSSAGSTPSQDLSSSSLNAASAAAAAAYFANSAVAQSLLMKSVATDPMMSCNGPFSPMPGFDQLAENMTKHLNLW
partner: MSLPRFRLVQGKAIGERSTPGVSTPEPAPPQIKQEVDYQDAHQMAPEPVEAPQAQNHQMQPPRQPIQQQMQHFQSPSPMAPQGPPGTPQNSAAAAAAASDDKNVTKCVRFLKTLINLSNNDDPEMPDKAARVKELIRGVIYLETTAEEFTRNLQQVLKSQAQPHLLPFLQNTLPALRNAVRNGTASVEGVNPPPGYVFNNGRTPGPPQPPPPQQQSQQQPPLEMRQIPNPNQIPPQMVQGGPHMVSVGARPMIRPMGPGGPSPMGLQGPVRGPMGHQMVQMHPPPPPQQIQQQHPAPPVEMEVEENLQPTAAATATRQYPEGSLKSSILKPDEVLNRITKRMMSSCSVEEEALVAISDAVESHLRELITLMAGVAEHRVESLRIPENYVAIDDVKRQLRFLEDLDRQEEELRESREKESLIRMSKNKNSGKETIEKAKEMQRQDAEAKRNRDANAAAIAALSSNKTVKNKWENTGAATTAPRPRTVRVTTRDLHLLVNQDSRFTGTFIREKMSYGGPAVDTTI

Variants of: B1
Settings: with taf4_caeel taf-4, O61707

Row | effect of a mutation on the interaction | Variant
1 | decreasing interaction | T239A
